T1: soluble human LIFR (leukemia inhibitory factor receptor) (human, UniProt P42702 45-833)
T1 construct: extracellular domain; Bought; also called soluble LIFR
T1 sequence (looked up): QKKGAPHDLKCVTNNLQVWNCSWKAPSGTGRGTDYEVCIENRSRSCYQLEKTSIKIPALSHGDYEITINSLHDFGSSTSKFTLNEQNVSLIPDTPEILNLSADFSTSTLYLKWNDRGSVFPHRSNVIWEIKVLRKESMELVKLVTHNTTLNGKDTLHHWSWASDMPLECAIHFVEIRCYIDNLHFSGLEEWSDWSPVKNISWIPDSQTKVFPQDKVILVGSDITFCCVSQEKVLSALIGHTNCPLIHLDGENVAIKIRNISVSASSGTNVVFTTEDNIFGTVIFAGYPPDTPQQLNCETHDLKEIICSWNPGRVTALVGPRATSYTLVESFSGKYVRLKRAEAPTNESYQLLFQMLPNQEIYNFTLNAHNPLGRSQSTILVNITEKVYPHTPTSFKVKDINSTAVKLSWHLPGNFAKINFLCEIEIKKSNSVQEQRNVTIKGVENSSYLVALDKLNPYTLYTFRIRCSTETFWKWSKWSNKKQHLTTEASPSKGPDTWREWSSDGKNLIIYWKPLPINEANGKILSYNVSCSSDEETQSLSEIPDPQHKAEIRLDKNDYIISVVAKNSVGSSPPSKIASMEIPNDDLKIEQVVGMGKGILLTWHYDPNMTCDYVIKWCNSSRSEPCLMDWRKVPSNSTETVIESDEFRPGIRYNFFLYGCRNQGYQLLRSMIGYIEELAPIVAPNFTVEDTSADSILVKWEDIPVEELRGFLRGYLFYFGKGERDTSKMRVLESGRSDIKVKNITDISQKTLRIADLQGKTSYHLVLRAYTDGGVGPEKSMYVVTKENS


Key:
[1] = target: T1, soluble human LIFR (leukemia inhibitory …); experiment: ELISA, apparent KD (KD,App), cytokine coated, soluble LIFR titrated (direct)
Protocol: For direct interaction studies, cytokines (LIF, OSM-WT, OSM-M1 or OSM-M2) were immobilized on the 96 well ELISA plate by incubating the wells with 200 μl of 5 nM cytokine solution in PBS, pH 7.4 overnight at 4° C. The wells were then blocked with blocking buffer (4% BSA in PBS) for 1 hour at room temperature. After washing with 250 μl of washing buffer (0.05% Tween-20 in PBS) 3 times, the cytokines were treated with a series of concentrations of soluble human LIFR (Catalog #249-LR-050/CF, R&D Systems, Minneapolis, Minn.) or OSMR (Catalog #4389-OR-050, R&D Systems, Minneapolis, Minn.) in 150 μl of blocking buffer for 2 hours. The wells were then incubated with 150 μl of polyclonal anti-hLIFR (Catalog #AF249-NA, R&D Systems, Minneapolis, Minn.) or anti-hOSMR (Catalog #AF662, R&D Systems, Minneapolis, Minn.) in blocking buffer for 1 hour followed by incubation with 150 μl of HRP conjugated […] antibody (GE Healthcare, Uppsala, Sweden) in blocking buffer for 30 minutes. The wells were then washed 3 times with washing buffer and treated with 100 μl of chromogenic Slow-TMB® HRP substrate (Catalog #34024, Thermo Scientific Fisher, Rockford, Ill.) for 15 minutes. The reaction was then stopped by adding 100 μl of 2M H₂SO₄ and the absorbance of each well at 450 nm was read immediately using a UV detector (iMARK® Microplate Reader, Biorad, Hercules, Calif.). For interactions of higher order, soluble human gp130 (Catalog #671-GP-100, R&D Systems, Minneapolis, Minn.) was immobilized on 96 well ELISA microplates by incubating the wells with 200 μl of 1 nM gp130 solution (in PBS, pH 7.4) overnight at 4° C. The wells were then blocked with 150 μl of blocking buffer (4% BSA in PBS) for 1 hour at room temperature. After washing with 250 μl of washing buffer 3 times, gp130 was treated with saturating amounts of the cytokines (500 nM hLIF, 200 nM OSM-WT, 200 nM OSM-M1 or 200 nM OSM-M2) in a volume of 150 μl of blocking buffer for a period of 2 hours. The cytokine solution was discarded and a series of concentrations of soluble human LIFR or OSMR in a final volume of 150 μl blocking buffer were then added to the wells and the incubation was continued for another 1 hour. After washing with 250 μl of washing buffer 3 times, the wells were then incubated with 150 μl of polyclonal anti-hLIFR or anti-hOSMR in blocking buffer for 1 hour.

[2] = target: OSMR:gp130 receptor complex on A375 melanoma cells (UniProt Q99650 28-979; P40189 23-918, limits assumed); experiment: cell-based or functional assay
[3] = target: LIFR:gp130 receptor complex on human retinal Müller cells (human, UniProt P42702 45-1097; P40189 23-918); experiment: cell-based or functional assay
LIFR:gp130 receptor complex on human retinal Müller cells, sequence (P42702 45-1097, one chain of several): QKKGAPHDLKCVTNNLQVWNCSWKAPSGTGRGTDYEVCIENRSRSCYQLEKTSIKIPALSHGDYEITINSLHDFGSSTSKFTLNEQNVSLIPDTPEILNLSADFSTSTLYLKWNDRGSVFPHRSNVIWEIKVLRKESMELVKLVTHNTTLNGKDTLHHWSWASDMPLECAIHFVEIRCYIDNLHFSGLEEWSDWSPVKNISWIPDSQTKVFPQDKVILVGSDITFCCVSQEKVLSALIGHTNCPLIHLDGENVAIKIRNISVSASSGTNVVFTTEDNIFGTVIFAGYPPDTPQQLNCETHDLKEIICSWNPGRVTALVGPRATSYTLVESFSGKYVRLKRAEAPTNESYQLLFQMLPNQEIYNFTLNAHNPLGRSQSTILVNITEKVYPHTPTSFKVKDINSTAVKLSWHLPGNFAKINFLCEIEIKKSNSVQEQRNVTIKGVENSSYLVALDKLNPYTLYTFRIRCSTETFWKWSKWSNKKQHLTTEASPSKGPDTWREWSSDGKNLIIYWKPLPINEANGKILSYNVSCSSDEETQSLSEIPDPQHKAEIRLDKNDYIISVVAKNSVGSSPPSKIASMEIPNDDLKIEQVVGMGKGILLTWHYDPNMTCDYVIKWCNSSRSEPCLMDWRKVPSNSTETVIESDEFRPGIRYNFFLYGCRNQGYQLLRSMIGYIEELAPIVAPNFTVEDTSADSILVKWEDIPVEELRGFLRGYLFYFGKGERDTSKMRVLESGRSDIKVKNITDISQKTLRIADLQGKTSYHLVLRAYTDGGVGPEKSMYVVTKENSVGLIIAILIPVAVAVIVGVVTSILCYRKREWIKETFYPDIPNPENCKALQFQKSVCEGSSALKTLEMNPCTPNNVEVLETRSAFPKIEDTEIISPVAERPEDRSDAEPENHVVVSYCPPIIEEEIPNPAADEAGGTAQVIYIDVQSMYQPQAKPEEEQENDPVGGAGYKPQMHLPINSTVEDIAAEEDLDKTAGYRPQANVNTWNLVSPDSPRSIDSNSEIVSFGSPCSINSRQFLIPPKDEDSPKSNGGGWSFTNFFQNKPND

Kd [1] [nM] | concentration needed for receptor activation, against native OSM [2] [fold lower concentration] | concentration needed for receptor activation, against native OSM [3] [fold lower concentration] | Binder
10.1 | 3 | 3 | OSM-M1 (OSM with BC loop truncated from 12 to 7 amino acids) (ligand, Made from the 'AGA' modified OSM template; lacks the thrombin site; not shown: N-terminal FLAG tag left after thrombin removal of GST) AAIGSCSKEYRVLLGQLQKQTDLMQDTSRLLDPYIRIQGLDVPKLREHCRERPGAFPSEETLRGLGRRGFLQTLNATLGCVLHRLADLEQRLGAPSGLNIEDLEKLQMARPNILGLRNNIYCMAQLLDNSDTAEPTKAGAGASQPPTPTPASDAFQRKLEGCRFLHGYHRFMHSVGRVFSKWGESPN
60 | – | – | OSM-WT ('AGA' modified human Oncostatin M, referred to as wild-type OSM) (ligand, also called hOSM with AGA modification; not shown: N-terminal FLAG tag left after thrombin removal of GST) AAIGSCSKEYRVLLGQLQKQTDLMQDTSRLLDPYIRIQGLDVPKLREHCRERPGAFPSEETLRGLGRRGFLQTLNATLGCVLHRLADLEQRLPKAQDLERSGLNIEDLEKLQMARPNILGLRNNIYCMAQLLDNSDTAEPTKAGAGASQPPTPTPASDAFQRKLEGCRFLHGYHRFMHSVGRVFSKWGESPN
8.75 | 3 | 3 | OSM-M2 (OSM with BC loop truncated from 12 to 4 amino acids) (ligand, Made from the 'AGA' modified OSM template; lacks the thrombin site; not shown: N-terminal FLAG tag left after thrombin removal of GST) AAIGSCSKEYRVLLGQLQKQTDLMQDTSRLLDPYIRIQGLDVPKLREHCRERPGAFPSEETLRGLGRRGFLQTLNATLGCVLHRLADLEQRLGGGNIEDLEKLQMARPNILGLRNNIYCMAQLLDNSDTAEPTKAGAGASQPPTPTPASDAFQRKLEGCRFLHGYHRFMHSVGRVFSKWGESPN
8.58 | – | – | human leukemia inhibitory factor (LIF) (ligand, Purified recombinant protein; also called hLIF) not shown

From patent US20100310509A1 (published 2010)
